# Laboratory results: paper PMC7476737, “Targeting 14-3-3ε-CDC25A interactions to trigger apoptotic cell death in skin cancer” (Oncotarget, 2020)
# [ ]: non-standard residue; d: D form. pT = C[C@@H](OP(=O)(O)O)[C@H](N)C(=O)O; pS = N[C@@H](COP(=O)(O)O)C(=O)O
# T1: 14-3-3ε (human (endogenous in SCC12B.2 and nHEK), UniProt P62258 1-255)
# T1 sequence (looked up): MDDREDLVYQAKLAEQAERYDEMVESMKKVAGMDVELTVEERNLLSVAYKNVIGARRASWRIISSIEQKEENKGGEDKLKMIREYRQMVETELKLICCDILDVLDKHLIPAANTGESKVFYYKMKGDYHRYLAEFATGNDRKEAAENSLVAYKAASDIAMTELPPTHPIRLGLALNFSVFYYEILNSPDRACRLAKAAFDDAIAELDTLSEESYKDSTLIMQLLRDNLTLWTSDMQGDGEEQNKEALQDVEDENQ
# B1: pS peptide (173-186 fragment of human CDC25A with phospho-Ser178) (peptide, UniProt P30304 173-186, looked up)
# peptide: Ac-TQRQN[pS]APARMLSS-NH2
# SMILES: CSCC[C@H](NC(=O)[C@H](CCCNC(=N)N)NC(=O)[C@H](C)NC(=O)[C@@H]1CCCN1C(=O)[C@H](C)NC(=O)[C@H](COP(=O)(O)O)NC(=O)[C@H](CC(N)=O)NC(=O)[C@H](CCC(N)=O)NC(=O)[C@H](CCCNC(=N)N)NC(=O)[C@H](CCC(N)=O)NC(=O)[C@@H](NC(C)=O)[C@@H](C)O)C(=O)N[C@@H](CC(C)C)C(=O)N[C@@H](CO)C(=O)N[C@@H](CO)C(N)=O
# B2: pT peptide (501-515 fragment of human CDC25A with phospho-Thr507) (peptide, UniProt P30304 501-515, looked up)
# peptide: Ac-FRTKSR[pT]WAGEKSKR-NH2
# SMILES: CC(=O)N[C@@H](Cc1ccccc1)C(=O)N[C@@H](CCCNC(=N)N)C(=O)N[C@H](C(=O)N[C@@H](CCCCN)C(=O)N[C@@H](CO)C(=O)N[C@@H](CCCNC(=N)N)C(=O)N[C@H](C(=O)N[C@@H](Cc1c[nH]c2ccccc12)C(=O)N[C@@H](C)C(=O)NCC(=O)N[C@@H](CCC(=O)O)C(=O)N[C@@H](CCCCN)C(=O)N[C@@H](CO)C(=O)N[C@@H](CCCCN)C(=O)N[C@@H](CCCNC(=N)N)C(N)=O)[C@@H](C)OP(=O)(O)O)[C@@H](C)O
# Biological target: T1, 14-3-3ε
# Assay: cell-based or functional assay
row,Binder,"IC50 of SCC12B.2 cell viability (neutral red assay, 0-75 μM peptide, 96 h); the pair blocked is 14-3-3ε with CDC25A [µM]"
1,B1,29
2,B2,22.6
